The record followed here is publication PMC10786891, “Massively parallel profiling of RNA-targeting CRISPR-Cas13d”.

Numbering of substitutions follows the chain as printed. Names and notes keep the numbering of the source.

T1: EsCas13d, nuclease-dead (Eubacterium siraeum, UniProt B0MS50, R295A;H300A;R849A;H854A)
T1 sequence: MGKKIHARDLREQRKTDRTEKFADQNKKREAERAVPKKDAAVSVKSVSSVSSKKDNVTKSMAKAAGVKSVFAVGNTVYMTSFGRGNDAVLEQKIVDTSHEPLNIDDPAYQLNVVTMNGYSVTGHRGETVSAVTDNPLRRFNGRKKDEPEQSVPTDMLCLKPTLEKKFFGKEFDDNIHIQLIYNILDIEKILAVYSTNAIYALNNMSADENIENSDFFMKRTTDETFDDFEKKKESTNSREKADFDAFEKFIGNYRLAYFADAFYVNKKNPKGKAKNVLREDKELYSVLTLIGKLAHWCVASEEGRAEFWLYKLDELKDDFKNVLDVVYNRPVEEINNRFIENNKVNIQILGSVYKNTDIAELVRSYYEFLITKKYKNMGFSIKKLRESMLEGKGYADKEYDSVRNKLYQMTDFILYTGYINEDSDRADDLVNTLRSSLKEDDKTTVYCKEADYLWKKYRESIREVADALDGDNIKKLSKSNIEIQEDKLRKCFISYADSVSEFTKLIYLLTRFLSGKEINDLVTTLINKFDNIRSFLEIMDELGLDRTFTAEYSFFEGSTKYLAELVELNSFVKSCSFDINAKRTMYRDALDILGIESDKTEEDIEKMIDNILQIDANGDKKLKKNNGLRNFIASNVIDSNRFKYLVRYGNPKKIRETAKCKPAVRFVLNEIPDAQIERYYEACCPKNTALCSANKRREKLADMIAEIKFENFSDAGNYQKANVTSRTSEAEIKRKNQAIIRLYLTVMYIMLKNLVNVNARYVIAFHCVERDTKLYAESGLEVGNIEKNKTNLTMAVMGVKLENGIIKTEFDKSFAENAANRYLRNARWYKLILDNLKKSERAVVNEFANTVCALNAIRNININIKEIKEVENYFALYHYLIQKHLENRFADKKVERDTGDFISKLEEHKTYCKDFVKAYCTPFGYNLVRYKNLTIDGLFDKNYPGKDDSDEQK

B1: target 1 A9G,A20C (mixed)
RNA 1: CACCCGUGCAAAAAUGCAGGGGUCUAAAACUGAGCGGAUAACCUCUCUAUGG
RNA 2: GGGAAUGGAUCCACAUCUACGAAUUCGUACCCUAGAGAGGUUGUCCGCUCACCGAGAUCGGAAGAGCACACGU
B2: target 1 complement block 3-7 (mixed)
RNA 1: B1 RNA 1
RNA 2: B1 RNA 2 with C32A, G43A, C45G, C46G, G47C, C48G, U49A
B3: target 1 complement block 1-6 (mixed)
RNA 1: B1 RNA 1
RNA 2: B1 RNA 2 with C32A, G43A, C46G, G47C, C48G, U49A, C50G, A51U
B4: target 1 G12U,A20C (mixed)
RNA 1: B1 RNA 1
RNA 2: B1 RNA 2 with G40U, G43A
B5: target 1 U3A,G17C (mixed)
RNA 1: B1 RNA 1
RNA 2: B1 RNA 2 with C32A, G35C, G43A, U49A
B6: target 1 insA 3' of 22,insC 3' of 8 (mixed)
RNA 1: B1 RNA 1
RNA 2: GGGAAUGGAUCCACAUCUACGAAUUCGUACACAUAGAGAGGUUAUCCCGCUCACCGAGAUCGGAAGAGCACACGU
B7: target 1 A1G,G5C (mixed)
RNA 1: B1 RNA 1
RNA 2: B1 RNA 2 with C32A, G43A, G47C, A51G
B8: target 1 insA 3' of 21,insU 3' of 2 (mixed)
RNA 1: B1 RNA 1
RNA 2: B6 RNA 2 with A31C, C32A, C48G, G49C, C50U, U51C, C52U
B9: target 1 G5C (mixed)
RNA 1: B1 RNA 1
RNA 2: B1 RNA 2 with C32A, G43A, G47C
B10: target 1 insU 3' of 7,insG 3' of 6 (mixed)
RNA 1: B1 RNA 1
RNA 2: GGGAAUGGAUCCACAUCUACGAAUUCGUACCAUAGAGAGGUUAUCUCGGCUCACCGAGAUCGGAAGAGCACACGU
B11: target 1 C7U,A9G (mixed)
RNA 1: B1 RNA 1
RNA 2: B1 RNA 2 with C32A, C45U
B12: target 1 insC 3' of 17,insA 3' of 6 (mixed)
RNA 1: B1 RNA 1
RNA 2: B6 RNA 2 with A31C, C32A, A33U, U34A, A35G, G36C, C48A
B13: target 1 U8G,G12A (mixed)
RNA 1: B1 RNA 1
RNA 2: B1 RNA 2 with C32A, G40A, G43A, U44G
B14: target 1 insA 3' of 21,insU 3' of 12 (mixed)
RNA 1: B1 RNA 1
RNA 2: B6 RNA 2 with A31C, C32A, A44U, U45A, C46U
B15: target 1 A9C,A14G (mixed)
RNA 1: B1 RNA 1
RNA 2: B1 RNA 2 with C32A, A38G, G43C
B16: target 1 A9G,A14G (mixed)
RNA 1: B1 RNA 1
RNA 2: B1 RNA 2 with C32A, A38G
B17: target 1 insU 3' of 21,insU 3' of 6 (mixed)
RNA 1: B1 RNA 1
RNA 2: B6 RNA 2 with A31C, C32U, C48U
B18: target 1 A1U,G5C (mixed)
RNA 1: B1 RNA 1
RNA 2: B1 RNA 2 with C32A, G43A, G47C, A51U
B19: target 1 insC 3' of 3,insG 3' of 2 (mixed)
RNA 1: B1 RNA 1
RNA 2: B10 RNA 2 with U46C, C47G, G48C, G49U, U51C, C52G
B20: target 1 A1C,G5C (mixed)
RNA 1: B1 RNA 1
RNA 2: B1 RNA 2 with C32A, G43A, G47C, A51C
B21: target 1 complement block 4-7 (mixed)
RNA 1: B1 RNA 1
RNA 2: B1 RNA 2 with C32A, G43A, C45G, C46G, G47C, C48G
B22: target 1 G12U,G13A (mixed)
RNA 1: B1 RNA 1
RNA 2: B1 RNA 2 with C32A, G39A, G40U, G43A
B23: target 1 U3A,C21A (mixed)
RNA 1: B1 RNA 1
RNA 2: B1 RNA 2 with C31A, C32A, G43A, U49A
B24: target 1 insG 3' of 22,insG 3' of 8 (mixed)
RNA 1: B1 RNA 1
RNA 2: B6 RNA 2 with A31G, C46G
B25: target 1 C2G,G5U (mixed)
RNA 1: B1 RNA 1
RNA 2: B1 RNA 2 with C32A, G43A, G47U, C50G
B26: target 1 C2U,C7U (mixed)
RNA 1: B1 RNA 1
RNA 2: B1 RNA 2 with C32A, G43A, C45U, C50U
B27: target 1 A1U,A14C (mixed)
RNA 1: B1 RNA 1
RNA 2: B1 RNA 2 with C32A, A38C, G43A, A51U
B28: target 1 U19A,C21A (mixed)
RNA 1: B1 RNA 1
RNA 2: B1 RNA 2 with C31A, C32A, U33A, G43A
B29: target 1 insG 3' of 16,insA 3' of 5 (mixed)
RNA 1: B1 RNA 1
RNA 2: B10 RNA 2 with A38G, G39A, U41G, A43U, U44A, C45U, U46C, G49A
B30: target 1 C7A,C21A (mixed)
RNA 1: B1 RNA 1
RNA 2: B1 RNA 2 with C31A, C32A, G43A, C45A
B31: target 1 C4U,G13C (mixed)
RNA 1: B1 RNA 1
RNA 2: B1 RNA 2 with C32A, G39C, G43A, C48U
B32: target 1 insC 3' of 12,insA 3' of 12 (mixed)
RNA 1: B1 RNA 1
RNA 2: B10 RNA 2 with U41C, U42A, A43U, C45A, G48C
B33: target 1 C7A,A14C (mixed)
RNA 1: B1 RNA 1
RNA 2: B1 RNA 2 with C32A, A38C, G43A, C45A
B34: target 1 U19C,C21A (mixed)
RNA 1: B1 RNA 1
RNA 2: B1 RNA 2 with C31A, C32A, U33C, G43A

For this series, the target named is T1, EsCas13d, nuclease-dead. Nature of the series: crRNA (strand 1, pre-loaded); Mg2+; 40 mM Tris-HCl pH 7.5, 150 mM NaCl, 6 mM MgCl2, 1 mM DTT, 0.1% Tween-20, 0.2 mg/ml BSA; 25 C; 10 min per concentration, then washed. Conditions: tags: His6-TwinStrep-SUMO cleaved; N-terminal SNAP kept (SNAP-Surface 488); label: 3' end held by stalled T7 RNA polymerase.
On to B1, for which the Kd came out at 54 ± 15 nM.

In turn, B2 showed a Kd of 12.9 ± 0.8 nM.

Consider B3, for which binding was characterised by a dissociation constant (Kd) of 6.14 ± 0.25 nM. This Kd lies about 2.1-fold lower than the previous one.

Molecule B4 came in with a Kd of 74 ± 32 nM.

In turn, B5 showed a Kd of 44 ± 4 nM.

As for B6, the Kd worked out at 22.3 ± 2 nM.

For B7, the affinity, expressed as Kd, was 10 ± 0.5 nM. Compared with the last molecule, the Kd is about 2.2-fold lower.

As to B8, the Kd was found to be 17.9 ± 1 nM.

Molecule B9 yielded a Kd of 9.6 ± 0.4 nM.

For the molecule B10, the Kd came out at 16.7 ± 1.3 nM.

The molecule B11 returned a Kd of 15.7 ± 1.1 nM.

B12 gave a Kd of 44 ± 5 nM. Against the preceding molecule, the Kd is about 2.8-fold higher.

The molecule B13 came in with a Kd of 12.9 ± 1.4 nM.

Take B14: binding was put at a Kd of 16.4 ± 0.8 nM. The Kd values of the last two molecules are within 1.5-fold of each other.

B15 gave a Kd of 29.5 ± 2.4 nM.

As to B16, the Kd amounted to 14.4 ± 0.7 nM.

The molecule B17 returned a Kd of 31.4 ± 1.6 nM. Compared with the last molecule, the Kd is about 2.2-fold higher.

Regarding B18, the Kd was found to be 8.9 ± 0.5 nM.

For B19, binding was characterised by a dissociation constant (Kd) of 11.6 ± 0.7 nM.

The molecule B20 yielded a Kd of 9 ± 0.7 nM. This Kd and that of the molecule before are within 1.5-fold of each other.

B21 yielded a Kd of 12.6 ± 0.8 nM.

The molecule B22 had a Kd of 3.99 ± 0.22 nM.

B23 yielded a dissociation constant Kd of about 90 nM.

B24 displayed a Kd of 68 ± 7 nM.

With B25, binding was put at a Kd of 22.1 ± 1.4 nM.

For the molecule B26, the Kd was determined as 6.5 ± 0.27 nM.

As to B27, the affinity, expressed as Kd, was 45 ± 6 nM. This Kd is about 6.9-fold higher than that of the molecule before.

On to B28, for which the Kd turned out to be 46 ± 5 nM.

In turn, B29 yielded a Kd of 23.5 ± 1.5 nM.

Consider B30, for which the Kd came out at 36 ± 4 nM.

The molecule B31 returned a Kd of 50 ± 10 nM.

In turn, B32 yielded a Kd of 14.7 ± 1.5 nM.

B33 returned an equilibrium dissociation constant (Kd) of 34 ± 4 nM.

Regarding B34, the Kd worked out at 37 ± 5 nM.

The term Kd denotes the constant that tells how readily two partners part at equilibrium. Low readings indicate a tighter complex, high ones a looser complex.
